Source: the nanobody polyreactivity screen of Harvey et al. (2022)

Assay: yeast display, Sf9 membrane polyspecificity reagent, FACS + sequencing; frameworks hold sequencing errors
Summary of the method: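 Galactose-induced (36–48 hours) yeast carrying a synthetic nanobody display library were exposed to 10% biotinylated, detergent-solubilized Sf9 membrane reagent at 4 °C for 1 hour. FACS followed streptavidin microbead enrichment, using low and high (top ~1%) gates for expression (anti-HA) and reagent binding (streptavidin). Colony PCR, MiSeq 2 × 250 sequencing and CDR-length filtering followed. Labels for polyreactivity reflect the gate of origin.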

Row | Sequence | polyreactivity (PSR sort gate)
1 | QVQLVESGGGLVQAGGSLRLSCAASGNAMGWYRQAPGKERELVAAITRRGGSTYYADSVKGRFTISRDNAKNTVYLQMNSLKPEDTAVYYCNADYAYYSYDYWGQGTQVTVSS | low polyreactivity
2 | QVQLVESGGGLVQAGGSLRLSCAASGFIFYTNAMAWYRQAPGNERQLVATLTTSGGRTYYADSVKGRFTISRDNAKNSVYLQMNSLKPEDTAVYYCATRYVVIEYDYWGQGTEVTVSS | low polyreactivity
3 | QVQLVESGGGLVQAGGSLRLSCAASGFTFRKNAKGWYRQAPGKERELVAAISSGSGSTYYADSVKGRFTISRDNAKNTVYLQMNSLKPEDNAVYYCNAEAYYTTGYPTSDVFDRYDYWGQGTQVTVSS | low polyreactivity
4 | QVQLVESGGGLVQAGGSLRLSCAASGITFRGYAMGWYRQAPGKERELVAAISSGGRTNYADSVKGRFTISRDNAKNTVYLQMNSLKPEDTAVYYCAARYRREKAGYRWDIFYWGQGTQVTVSS | high polyreactivity
5 | QVQLVESGGGLVQAGGSLRFSCAASGSTFIGYAMGWYRQAPGKERELVAGISRGGRTNYADSVKGRFTISRDNAKHTVYLQMNSLKPEDTAVYYCAAGYRRYYEGFWVIQMNYWGQGTQVTVSS | high polyreactivity
6 | QVQLVESGGGLVQAGGSLRLSCAASGITFDWYTLGWYSQAPGKERELVAAISRNGGSTYYADSVKGRFTISRDNAKNTVYLQMNSLKPEDTAVYYCAAPLTYLYYGYDYWGQGTQVTVSS | high polyreactivity
7 | QFQLVESGRGLVQAGGSLRLSCAASGRTFSAYAIGWNSQAPVKQRELVAAITRGGSTNYADSVKGRFTISRDNAMNTLYLQMNRLKPEDTAVYYCAARRSSRKDFGYWGQGTQVTVSS | high polyreactivity
8 | QVQLVESGGGLVQAGGSLRLSCAASGRILSPYAMGWYRQAPGKERELVAVINTSGGRTYYADSVKGRFTISRDNAKNTVYLQMNSLKPEDTAVYYCAARERKVQYDYWGQGTQVTVSS | high polyreactivity
9 | QVQLVESGGGLVQAGGSLRLSCAASGIIFKNYAMGWYRQAPGKERELVAAISKRGASTYYADSVKGRFTISRDNAKNTVYLQMNSLKPEDTAVYYCAAYRQGSAYDYWGQGTQVTVSS | high polyreactivity
10 | QVQLVESGGGLVQAGGSLRLSCAASGYIFDRYAMGWYRQAPGKERELVAAISGRGGSTYYADSVKGRFTISRDNAKNTVYLQMNSLKPEETAVYYCARDVYVRNGQRARYDSWGQGTQVTVSS | high polyreactivity
11 | QVQLVESGGGLVHAGGSLRLSCAASGSTFAYNAMGWYRQAPGKERELVDAIDWSDGITYYADSVKGRFTISRDNAKNTVYLQMNSLKPEDTAVYYCAAEDGYTDSRAYGYDYWGQGTQVTVSL | low polyreactivity
12 | QLQLVESGGGLVQAGGSLRLSCAASGFTIRRYAMGCYRQAPGKERELVAAITWSAGSTYYADSVKGRFTISRDNAKNTVYLQMNSLKPEDTAVYYCAARWTRWGADSGYYWGKGTQVTVSS | high polyreactivity
13 | QVQLVESGGGLVQAGGRLRLSCAASGRIFYTNYMGWYRHAPGKERELVAAIRSVSTYYADSVKGRFTISRDNAKNTVYLHMNSLNPEDTAVYYCNALRTNRYDYWGQGTQVTVSS | high polyreactivity
14 | QVQLVESGGGLVQAGGSLRLSCAASGSTFSDYVMGWYRQAPGKEREFVAAISWTGGITYYADSVKGRFTISRDNAKNTVYLQMNSLKPEDTAVYYCAAKRKYYGNGYWGQGTQVTVSS | high polyreactivity
15 | QVQLVETGVGLVQAGGSLRVICAASGLTFYLYAMGWNRQAPGKERELAAAISSTGITNFADSVKGRFTISRDNAKNTVYLQMTSLKPEDTAVYYCNADYHPFFFEFNYWGKGTQVTVSS | high polyreactivity
16 | QVQLVESGGGLVQAGGSLRLSCDASGGIFFLYAMGWYRQAPGKERELVAAITNDGRTYYADSVKGRFTISRDNAKYTVYLQMNSLKPEDTAVYYCDAAALISVGDLVIYEDDYWGQGTQVTVSS | low polyreactivity
17 | QVQLVESGGGLVQAGGSLRLSCAASGSIRSYAMGWYRQSPGKERELVAAITRSGGSTYYADSVKGRFTISRDNAKNSVYLQMNSLKPEDTAVYYCAAEVRGKSRSTRVSYRYDYWGQGTQVTVSS | high polyreactivity
18 | QVQLVESGGGLVQAGGSLRLSCAASGSIFVYNDMGWYRQAPGKERELVAGIDWSGDRTYADSVKGRFTISRDNAKNTVYLQMNSLKPEDTAVYYCNADEWRWDEIIPYAVDYWGQGTQVTVSS | low polyreactivity
19 | QVQLVESGGVLVQAGGSLRLSCAATGSIFQYYAMGWSRQAPGKERELVATNRRSGGSTYYADSVKGRFTISRDTAKHTVFLQMNSLKPEDTAVYYCARRLYTWETGGWRYDSWGQGTQVTVSS | high polyreactivity
